Assays:
Assay type in all cases: physicochemical
[1] = Dispersion of hydrophilic species/amphiphile array in hydrophobic solvent: visual optical clarity
[2] = Percent sedimentation after 24 hours of macromolecules dispersed in oleic acid with and without PC; conditions: 300 μl oleic acid, error ±5%; for Percent sedimentation after 24 hours, +PC: Example 17: with egg yolk PC SUVs; for Percent sedimentation after 24 hours, −PC: Example 17: without PC
Protocol: 10 mg of cytochrome C, haemoglobin and FITC-dextran were each dissolved in 1 ml of distilled water. 4.4 mg of RNA (extracted from Torula yeast) was dissolved in 1 ml of phosphate-buffered saline. 2×50 μl of each of these solution was dispensed into fresh glass tubes, and to one of each of these sets of solutions was added 250 μl of SUVs prepared as in example 1 at a concentration of 40 mg/ml of egg yolk lecithin (PC).
Both sets of tubes were shell-frozen and lyophilised overnight as above. The following day 300 μl of oleic acid was added to each of the tubes. The samples were left to stand at room temperature with occasional vortexing for one hour until complete dispersion had been achieved. The oils were allowed to stand overnight. The turbidity of the samples prepared without PC was greater than those containing PC.
The following day, sediments had settled out in the samples prepared without PC. Without disturbing any of the samples, the top 150 μl of each sample was taken off, and the absorbances measured of both the material removed, and the material left behind, after mixing; comparison of the two readings allowed one to calculate the percentage sedimentation for samples with and without PC (error in measurements ±5%) Values obtained are listed below.

[3] = Turbidity of oil preparations by optical density / absorbance (plate reader); conditions: for OD650: Example 23: HDPoC, one hour; for optical density at 550 nm: Example 25: 0.5 mg protein/well, oleic acid
Protocol: It is very much preferred that the preparations of the invention are optically clear and this can be monitored by measuring turbidity at visible wave lengths and, in some cases, by checking for sedimentation over a period of time. […]
Aprotinin was dissolved in distilled water at a concentration of 10 mg/ml. Hexadecyl phosphocholine (HDPoC) was dissolved in distilled water at a concentration of 100 mg/ml. To aliquots of 100 μl of aprotinin solution, volumes of HDPOC were added ranging from 0 through to 10, 20, 30, 40 to 50 μl. The mixtures were frozen at −20° C. and lyophilised overnight. The following day 100 μl of oleic acid was added to each sample and shaken for one hour at room temperature on an orbital shaker.
Octyl glucoside was dissolved in distilled water and dispensed into wells of a microplate to give the following amounts of amphiphile per well: −0, 0.5, 1.0, 1.5, 2.0, 2.5, 5, 7.5 and 10 mg. Aprotinin was dissolved in distilled water at a concentration of 5 mg/ml, and 100 μl was dispensed into each well above, containing 0.5 mg of protein. The plate was mixed well, frozen at −20° C. and lyophilised overnight. The following day, […] of oleic acid was added to each well. The plate was shaken at room temperature, and optical density measurements at 550 nm taken at intervals with a plate reader. A low absorbance value indicates a low level of scattering, and corresponds to effective dispersion of protein in oil.
The results, expressed in terms of optical density as a function of octyl glucoside concentration (at constant protein concentration) at different times after addition of oleic acid are given in the table and accompanying graph.

[4] = Example 7: salmon calcitonin together with aprotinin, egg PC (EmulsiFlex), glycerol mono-oleate BP

For `NC[C@@H]1O[C@H](O[C@H]2[C@@H](O)[C@H](O[C@@H]3[C@@H](O)[C@H](N)C[C@H](N)[C@H]3O[C@H]3O[C@H](CN)[C@@H](O)[C@H](O)[C@H]3N)O[C@@H]2CO)[C@H](N)[C@@H](O)[C@@H]1O.O=S(=O)(O)O` [Neomycin sulphate, reference compound], the appearance of solution ([1]; Example 27: soya PC dispersion, 1 g Miglyol 818, overnight at room temperature) was “optically clear solution”.

With `[Ca+2].[Cl-].[Cl-]` [calcium chloride] the appearance of dispersion ([1]; Example 35: soy PC SUV, 500 mg Miglyol 818, after standing overnight) was “completely clear dispersion” and the appearance of dispersion ([1]; Example 35: soy PC SUV, 500 mg oleic acid, after several hours) was “completely clear dispersion”.

In the case of Salmon calcitonin, the “appearance of oil phase” value ([1]; Example 1: egg PC SUVs, lyophilised, 300 mg oleic acid BP, one to two hours at room temperature) is reported as “single clear lipid phase, which was optically transparent”, the “protein content of clear preparation” value ([1]; Example 2: soy PC SUVs, 95% oleic acid) is reported as 6.7 mg protein/g oleic acid and the appearance of preparation ([1]; Example 2: soy PC SUVs, lyophilised, 1.2 g of 95% oleic acid) is reported as “completely clear”. The “appearance of oil phase” value ([1]; Example 4: 13.4 mg protein, 100 mg soy PC, 200 mg oleic acid) was “clear oil phase”, the “calcitonin content of clear oil phase” value ([1]; Example 4: soy PC SUVs, 200 mg oleic acid) was 42.7 mg calcitonin/g and the appearance of dispersion [1, 4] was “optically clear opalescent dispersion”. The appearance of dispersion ([1]; Example 11: 30 mg soy PC, 300 mg MCT oil, following morning) was “opalescent”, the appearance of dispersion ([1]; Example 11: 30 mg soy PC, 300 mg Miglyol 810, following morning) was “turbid” and the appearance of dispersion ([1]; Example 11: 30 mg soy PC, 300 mg Miglyol 812, following morning) was “opalescent”. For the same compound, the appearance of dispersion ([1]; Example 11: 30 mg soy PC, 300 mg Miglyol 818, following morning) was “completely clear”, the appearance of dispersion ([1]; Example 11: 30 mg soy PC, 300 mg Miglyol 829, following morning) was “completely clear” and the appearance of dispersion ([1]; Example 11: 30 mg soy PC, 300 mg Miglyol 840, following morning) was “turbid”.

With ferritin the appearance of solution ([1]; Example 18: egg yolk PC SUVs, ammonium acetate 10 mg/ml, oleic acid) was “optically clear solutions were obtained (although ferritin solution showed some opalescence, and was strongly coloured)”.

In the case of Haemoglobin, the “Percent sedimentation after 24 hours, +PC” value [2] is reported as 0% and the “Percent sedimentation after 24 hours, −PC” value [2] is reported as 44%.

In the case of aprotinin, the OD650 ([3]; lipid:protein ratio 0, 100 μl oleic acid) is reported as 1.117, the OD650 ([3]; lipid:protein ratio 1:1, 100 μl oleic acid) is reported as 0.869 and the OD650 ([3]; lipid:protein ratio 2:1, 100 μl oleic acid) is reported as 0.438. For the same compound, the OD650 ([3]; lipid:protein ratio 3:1, 100 μl oleic acid) was 0.207, the OD650 ([3]; lipid:protein ratio 4:1, 100 μl oleic acid) was 0.094 and the OD650 ([3]; lipid:protein ratio 5:1, 100 μl oleic acid) was 0.099. For the same compound, the “optical density at 550 nm” value ([3]; octyl glucoside 0.00 mg/well, 1 hr) was 0.548, the “optical density at 550 nm” value ([3]; octyl glucoside 0.00 mg/well, 4 hr) was 0.458 and the “optical density at 550 nm” value ([3]; octyl glucoside 0.00 mg/well, 8 hr) was 0.489. For the same compound, the “optical density at 550 nm” value ([3]; octyl glucoside 0.50 mg/well, 1 hr) was 0.082, the “optical density at 550 nm” value ([3]; octyl glucoside 0.50 mg/well, 4 hr) was 0.043 and the “optical density at 550 nm” value ([3]; octyl glucoside 0.50 mg/well, 8 hr) was 0.103. The “optical density at 550 nm” value ([3]; octyl glucoside 1.00 mg/well, 1 hr) was −0.003, the “optical density at 550 nm” value ([3]; octyl glucoside 1.00 mg/well, 4 hr) was −0.008 and the “optical density at 550 nm” value ([3]; octyl glucoside 1.00 mg/well, 8 hr) was −0.008. For the same compound, the “optical density at 550 nm” value ([3]; octyl glucoside 1.50 mg/well, 1 hr) was −0.004, the “optical density at 550 nm” value ([3]; octyl glucoside 1.50 mg/well, 4 hr) was −0.015 and the “optical density at 550 nm” value ([3]; octyl glucoside 1.50 mg/well, 8 hr) was −0.015. For the same compound, the “optical density at 550 nm” value ([3]; octyl glucoside 2.00 mg/well, 1 hr) was −0.007, the “optical density at 550 nm” value ([3]; octyl glucoside 2.00 mg/well, 4 hr) was −0.012 and the “optical density at 550 nm” value ([3]; octyl glucoside 2.00 mg/well, 8 hr) was −0.013. The “optical density at 550 nm” value ([3]; octyl glucoside 2.50 mg/well, 1 hr) was 0.006, the “optical density at 550 nm” value ([3]; octyl glucoside 2.50 mg/well, 4 hr) was −0.004 and the “optical density at 550 nm” value ([3]; octyl glucoside 2.50 mg/well, 8 hr) was −0.002. For the same compound, the “optical density at 550 nm” value ([3]; octyl glucoside 5.00 mg/well, 1 hr) was 0.307, the “optical density at 550 nm” value ([3]; octyl glucoside 5.00 mg/well, 4 hr) was −0.013 and the “optical density at 550 nm” value ([3]; octyl glucoside 5.00 mg/well, 8 hr) was −0.014. The “optical density at 550 nm” value ([3]; octyl glucoside 7.50 mg/well, 1 hr) was 0.65, the “optical density at 550 nm” value ([3]; octyl glucoside 7.50 mg/well, 4 hr) was −0.015 and the “optical density at 550 nm” value ([3]; octyl glucoside 7.50 mg/well, 8 hr) was −0.014. The “optical density at 550 nm” value ([3]; octyl glucoside 10.00 mg/well, 1 hr) was 1.628, the “optical density at 550 nm” value ([3]; octyl glucoside 10.00 mg/well, 4 hr) was 0.817 and the “optical density at 550 nm” value ([3]; octyl glucoside 10.00 mg/well, 8 hr) was −0.014. The “appearance of oil phase” value ([1]; Example 3: lyophilate stored 5 days at 4° C. in desiccator with phosphorus pentoxide, then 300 mg oleic acid) was “optically clear oil phase”, the appearance of dispersion [1, 4] was “optically clear opalescent dispersion” and the appearance of solution ([1]; Example 23: HDPoC, lipid:protein ratio 4:1, oleic acid) was “Optically clear solutions”. The appearance of solution ([1]; Example 23: HDPoC, lipid:protein ratio 5:1, oleic acid) was “Optically clear solutions” and the appearance of dispersion ([1]; Example 36: AOT amphiphile, 200 mg octanol, cleared rapidly, state after 24 hours) was “opalescent dispersion”.

For Cytochrome C, the “Percent sedimentation after 24 hours, +PC” value [2] was 3.1% and the “Percent sedimentation after 24 hours, −PC” value [2] was 76%.

With carboxyfluorescein [reference compound] the appearance of dispersions ([1]; Example 33: soy PC SUV, melts of tripalmitin, triheptadecanoin or tristearin with 2% oleic acid, 78 C, after several minutes) was “completely clear”.

In the case of ribonuclease, the appearance of dispersion ([1]; Example 31: soy PC SUV, 1.6 g Miglyol 818, after several hours) is reported as “clear dispersion”.

— patent US6368619B1, “Hydrophobic preparations of hydrophilic species and process for their preparation” (Provalis UK Limited, priority 1993, dated 2002)
